In the Human Domainome abundance scans (Beltran et al. 2025):

B1: PDZ and LIM domain protein 2, residues 284 to 339; numbered along this chain, Q96JY6 (parent)
chain: HTCEKCSTSIANQAVRIQEGRYRHPGCYTCADCGLNLKMRGHFWVGDELYCEKHAR
B2: V(D)J recombination-activating protein 2, residues 415 to 491; numbered along this chain, P55895 (parent)
chain: YWITCCPTCDVDINTWVPFYSTELNKPAMIYCSHGDGHWVHAQCMDLAERTLIHLSAGSNKYYCNEHVEIARALHTP

Variants of: B1
Experiment: abundance fitness (aPCA) (normalised: wild type 0, dead -1); higher = more abundant; growth selection in yeast, the domain comes from the species named
Conditions: Homo sapiens

Abundance fitness: each site, then its substitutions
A55: C -0.108, D -0.097, E -0.309, F 0.12, G -0.079, I -0.203, M -0.066, P -0.414, Q 0.041, R 0.005, S 0.148, T -0.013, V -0.172, W 0.063, Y 0.081
R56: C 0.093, E 0.263, G 0.068, L 0.797, V 0.049, W -0.344

Variants of: B2
Experiment: as above
Conditions: Homo sapiens

Abundance fitness: each site, then its substitutions
Y1: A -0.188, D -0.108, E -0.063, F -0.07, G -0.102, H -0.399, K -0.365, L -0.098, M -0.041, N -0.252, Q -0.283, R -0.469, S -0.084, T -0.098, V -0.008, W -0.19
W2: A -0.39, E -0.231, G -0.342, H -0.11, I -0.333, K -0.162, L -0.467, M -0.226, N 0.12, P -0.299, Q -0.382, R -0.378, V -0.853, Y 0.055
I3: A -0.057, C -0.117, D 0.004, E -0.082, F 0.044, G -0.021, H -0.265, K -0.018, L -0.112, M -0.041, N -0.053, P -0.623, Q -0.186, S -0.118, T -0.102, V -0.053, W -0.159, Y -0.202
T4: A -0.122, C -0.119, D -0.022, E -0.057, F -0.101, I -0.016, K -0.048, L -0.049, M -0.176, N 0.012, P -0.234, Q -0.185, R -0.013, S -0.037, V -0.128, W -0.297, Y -0.141
C5: A -0.616, G -0.392
C6: F -0.304, G -0.024, K -0.28, L -0.284, M -0.393, R -0.432, S 0.209, V -0.096
P7: D 0.002, E 0.09, K 0.084, L -0.065, R -0.635, S 0.075, V -0.006, W -0.242
T8: A -0.437, D -0.279, E 0.058, G -0.277, K -0.123, N 0.091, P -0.159, Q -0.258, R -0.204, S 0.129, V -0.196, W -0.627, Y -0.541
C9: F -0.637, G -0.916, Q -0.175, R -0.668, T -0.809, Y -0.739
D10: A 0.065, G -0.03, K -0.089, L 0.102, M -0.325, N 0.033, Q 0.121, R 0.195, S -0.114, T 0.019, V 0.145, W 0.045
V11: A -0.741, C 0.012, F -0.386, G -0.697, M -0.264, R -0.75, S -0.437, T -0.336, W -0.178
D12: E 0.083, F -0.244, G -0.04, L -0.332, M 0.009, N -0.01, P -0.392, R 0.107, S -0.229, T -0.226, V -0.304, W -0.317
I13: A -0.149, C -0.059, E 0.172, G -0.193, L -0.098, M -0.284, R 0.114, S -0.264, T -0.329, V -0.35, W -0.12
